In patent US20210388089A1 (COMPASS THERAPEUTICS, published 2021):
Each block holds one binder with its values, some of them ahead of it.

B1: human BTN3A1 (CD277) expressed on the cell surface (BTN-K32 aAPCs: K562 cells expressing human CD32 and BTN3A1; BMDCs of BTN3A1 knock-in mice) (receptor)
chain: not shown
notes: also called BTNA31-K32; BTN3-K32

Experiments:
[1] = molecular target: T1, recombinant NRP2 Fc protein (UniProt O60462 23-864, limits assumed); assay: binding of recombinant Fc proteins to BTN-K32 aAPCs vs. mock-transduced aAPCs
T1 construct: Construct not described
T1 sequence (looked up): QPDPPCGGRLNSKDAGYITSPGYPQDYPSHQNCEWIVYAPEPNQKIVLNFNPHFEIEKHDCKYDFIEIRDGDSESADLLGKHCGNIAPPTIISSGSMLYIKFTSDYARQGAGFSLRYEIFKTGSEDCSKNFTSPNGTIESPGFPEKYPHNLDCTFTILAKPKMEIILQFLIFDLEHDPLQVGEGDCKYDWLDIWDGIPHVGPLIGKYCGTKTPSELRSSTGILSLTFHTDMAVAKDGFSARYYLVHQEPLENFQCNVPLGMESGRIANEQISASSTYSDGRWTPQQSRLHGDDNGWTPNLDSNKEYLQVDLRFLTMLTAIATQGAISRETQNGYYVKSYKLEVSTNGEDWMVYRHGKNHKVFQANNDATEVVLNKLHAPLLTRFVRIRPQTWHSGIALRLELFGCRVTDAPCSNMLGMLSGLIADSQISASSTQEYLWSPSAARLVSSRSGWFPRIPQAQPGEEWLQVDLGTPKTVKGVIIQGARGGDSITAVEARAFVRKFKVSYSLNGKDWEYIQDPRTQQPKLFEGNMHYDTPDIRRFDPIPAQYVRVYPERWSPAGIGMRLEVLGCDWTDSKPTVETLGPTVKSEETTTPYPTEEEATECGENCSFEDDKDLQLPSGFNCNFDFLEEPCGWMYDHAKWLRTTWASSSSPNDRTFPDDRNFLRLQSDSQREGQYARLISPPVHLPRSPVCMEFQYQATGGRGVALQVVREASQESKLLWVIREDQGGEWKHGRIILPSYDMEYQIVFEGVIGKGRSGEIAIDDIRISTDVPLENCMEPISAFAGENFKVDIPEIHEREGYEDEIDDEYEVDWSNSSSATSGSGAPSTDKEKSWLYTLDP

[2] = molecular target: T2, recombinant NRP1 Fc protein (UniProt O14786-2 22-644, limits assumed); assay: as above
T2 construct: Construct not described
T2 sequence (looked up): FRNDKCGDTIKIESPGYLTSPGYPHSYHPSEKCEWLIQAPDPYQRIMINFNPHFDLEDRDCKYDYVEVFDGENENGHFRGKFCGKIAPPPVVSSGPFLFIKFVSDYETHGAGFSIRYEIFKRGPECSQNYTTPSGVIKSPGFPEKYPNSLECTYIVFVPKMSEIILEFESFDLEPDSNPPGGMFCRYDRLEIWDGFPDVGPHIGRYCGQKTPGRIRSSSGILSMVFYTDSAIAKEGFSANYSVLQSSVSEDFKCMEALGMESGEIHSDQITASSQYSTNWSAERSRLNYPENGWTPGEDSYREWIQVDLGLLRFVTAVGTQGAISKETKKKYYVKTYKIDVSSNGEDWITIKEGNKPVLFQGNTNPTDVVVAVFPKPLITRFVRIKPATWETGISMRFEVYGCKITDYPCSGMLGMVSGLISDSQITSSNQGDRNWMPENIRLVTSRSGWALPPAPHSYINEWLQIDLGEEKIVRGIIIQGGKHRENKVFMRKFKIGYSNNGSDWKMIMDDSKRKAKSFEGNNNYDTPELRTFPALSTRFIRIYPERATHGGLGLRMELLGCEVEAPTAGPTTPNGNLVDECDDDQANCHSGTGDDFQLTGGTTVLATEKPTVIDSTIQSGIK

[3] = molecular target: T3, CD5 of OKT3-activated primary αβ T cells (human, UniProt P06127 25-495); assay: co-immunoprecipitation from activated primary αβ T cells after DTSSP crosslinking, LC-MS/MS
T3 construct: whole, on cells
T3 sequence (looked up): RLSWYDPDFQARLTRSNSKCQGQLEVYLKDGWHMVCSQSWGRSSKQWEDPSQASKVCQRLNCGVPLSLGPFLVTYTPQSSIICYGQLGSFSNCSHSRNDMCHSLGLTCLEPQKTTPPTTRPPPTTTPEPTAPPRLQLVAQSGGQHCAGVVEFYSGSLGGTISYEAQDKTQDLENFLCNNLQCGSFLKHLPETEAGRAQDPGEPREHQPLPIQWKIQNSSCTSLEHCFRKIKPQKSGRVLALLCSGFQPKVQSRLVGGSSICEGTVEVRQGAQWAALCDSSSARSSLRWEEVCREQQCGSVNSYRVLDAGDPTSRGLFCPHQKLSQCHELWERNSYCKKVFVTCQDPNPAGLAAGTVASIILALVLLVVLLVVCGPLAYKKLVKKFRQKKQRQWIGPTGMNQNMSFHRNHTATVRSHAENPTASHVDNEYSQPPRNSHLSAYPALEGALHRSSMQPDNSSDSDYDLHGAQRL
Protocol: (§1) Proteins were eluted with LDS sample buffer supplemented with DTT by heating at 70° C. for 10 minutes. Eluted fractions from BTN3A1-Fc and control were run into an SDS-gel for 0.5 cm, and the entire gel lanes were excised and digested with trypsin. Liquid chromatography tandem mass spectrometry (LC-MS/MS) analysis of tryptic digests was performed by the Wistar Proteomics and Metabolomics Facility using a Q Exactive HF mass spectrometer (Thermo Scientific). MS/MS spectra generated from the LC-MS/MS runs were searched using full tryptic specificity against the UniProt human database (www.uniprot.org; Oct. 1, 2017) using the MaxQuant 1.6.0.16 program. Protein quantitation was based on intensity and MS/MS count was determined from unique and razor peptides (J. Cox, M. Mann, MaxQuant enables high peptide identification rates, individualized p.p.b.-range mass accuracies and proteome-wide protein quantification. Nat Biotechnol 26, 1367-1372 (2008)). False discovery rates for protein and peptide were set at 1%. Protein tables were filtered to remove reverse database entries, common contaminants, and proteins identified by a single peptide.
(§2) To determine the mechanism by which BTN3A1 (also referred to herein as CD277) inhibits αβ T cell activity, the binding of BTN3A1 to potential immunosuppressive receptors was ruled out by comparing the binding of recombinant NKG2A, GPR174, NRP1, NRP2, PD-1, CTLA4, TIM-3 and BTLA Fc proteins to MHC-I⁻CD32⁺ K562 artificial Antigen-Presenting Cells with BTN3A1 retrovirally expressed on the surface of the cell (BTN-K32 aAPCs) vs. mock-transduced aAPCs. Binding of BTN3A1 to these immunosuppressive receptors was not observed. BTN3A1-Fc proteins were then used to co-immunoprecipitate (co-IP) the binding partner(s) of BTN3A1 on OKT3-activated primary αβ T cells from three independent pull downs from three different donors.

[4] = molecular target: T4, CD44 of OKT3-activated primary αβ T cells (human, UniProt P16070 21-742); assay: as above
T4 construct: whole, on cells
Protocol: as §1, §2

[5] = molecular target: T5, CD2 of OKT3-activated primary αβ T cells (human, UniProt P06729 25-351); assay: as above
T5 construct: whole, on cells
T5 sequence (looked up): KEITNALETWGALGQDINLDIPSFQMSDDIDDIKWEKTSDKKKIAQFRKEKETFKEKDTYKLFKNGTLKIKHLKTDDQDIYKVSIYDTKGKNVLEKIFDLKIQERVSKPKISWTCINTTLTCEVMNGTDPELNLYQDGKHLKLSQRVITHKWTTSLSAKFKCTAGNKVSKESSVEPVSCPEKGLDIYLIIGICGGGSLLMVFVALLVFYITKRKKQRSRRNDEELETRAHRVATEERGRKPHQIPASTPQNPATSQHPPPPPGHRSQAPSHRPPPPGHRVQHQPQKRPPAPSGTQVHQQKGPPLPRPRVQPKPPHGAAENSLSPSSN
Protocol: as §1, §2

[6] = molecular target: B1; assay: binding of recombinant Fc proteins to BTN-K32 aAPCs vs. mock-transduced aAPCs
[7] = molecular target: B1; assay: cell-based or functional assay
[8] = molecular target: T6, biotinylated human CD277 Fc fusion (human, UniProt O00481 30-254, limits assumed, biotinylated with EZ-Link Sulfo-NHS biotinylation reagent (sites not given)); assay: yeast display selection (MACS and FACS) for binders of biotinylated human CD277 Fc fusion
T6 construct: also called human CD277 Fc fusion antigen

T4 sequence (P16070 21-742): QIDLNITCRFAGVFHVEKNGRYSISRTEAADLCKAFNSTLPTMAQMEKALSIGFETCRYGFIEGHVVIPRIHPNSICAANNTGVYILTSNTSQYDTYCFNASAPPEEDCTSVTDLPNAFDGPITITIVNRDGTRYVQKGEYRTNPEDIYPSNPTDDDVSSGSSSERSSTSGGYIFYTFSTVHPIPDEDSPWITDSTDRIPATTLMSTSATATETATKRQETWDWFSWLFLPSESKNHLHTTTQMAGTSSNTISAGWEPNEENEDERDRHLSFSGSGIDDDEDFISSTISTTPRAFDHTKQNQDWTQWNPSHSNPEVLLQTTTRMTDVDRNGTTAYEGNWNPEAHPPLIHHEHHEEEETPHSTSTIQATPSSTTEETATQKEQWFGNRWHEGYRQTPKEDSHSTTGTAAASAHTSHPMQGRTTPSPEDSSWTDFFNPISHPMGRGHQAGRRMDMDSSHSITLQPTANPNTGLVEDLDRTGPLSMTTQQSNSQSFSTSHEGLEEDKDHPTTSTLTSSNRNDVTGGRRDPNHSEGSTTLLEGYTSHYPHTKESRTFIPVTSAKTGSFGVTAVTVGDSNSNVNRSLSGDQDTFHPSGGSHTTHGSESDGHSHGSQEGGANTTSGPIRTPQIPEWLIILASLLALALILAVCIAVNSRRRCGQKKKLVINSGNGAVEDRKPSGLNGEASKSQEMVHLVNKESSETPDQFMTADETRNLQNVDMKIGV

Binder: B1
binding result [1]: no binding | binding result [2]: no binding

binding result [3]: no binding (tested: 10 µg/ml BTN3A1-Fc) | binding result [4]: no binding (tested: 10 µg/ml BTN3A1-Fc) | binding result [5]: no binding (tested: 10 µg/ml BTN3A1-Fc)
B2: BTN3A1-Fc fusion protein (R&D systems Cat #8539-BT-050) (Fc fusion)
chain: not shown
notes: Bought from R&D systems; also called BTN3A1-Fc proteins; CD277; not shown: Fc part of the bought fusion protein

binding result [6]: no binding
B3: recombinant NKG2A Fc protein (Fc fusion, not shown: a dimerising Fc or GST)
chain: not shown
notes: Construct not described

IFN-γ release of purified CD4+ T cells stimulated with BTN-K32 cells (ELISA, fold over baseline) [7]: > 2 fold | IFN-γ release of purified CD8+ T cells stimulated with BTN-K32 cells (ELISA, fold) [7]: ~1300 fold | proliferation of gated CD4+ T cells within total PBMCs stimulated with anti-CD3/anti-CD28 coated BTN-K32 cells (fold change) [7]: ≥ 1.5 fold | proliferation of gated CD8+ T cells within total PBMCs stimulated with anti-CD3/anti-CD28 coated BTN-K32 cells (fold change) [7]: ≥ 1.5 fold | proliferation of purified CD4+ T cells stimulated with BTN-K32 cells (fold change) [7]: ≥ 1.5 fold | proliferation of purified CD8+ T cells stimulated with BTN-K32 cells (fold change) [7]: ≥ 2 fold | binding result [8]: binds
B4: anti-CD277 monoclonal antibody mAb1 (antibody, human IgG1, kappa, N297A)
heavy: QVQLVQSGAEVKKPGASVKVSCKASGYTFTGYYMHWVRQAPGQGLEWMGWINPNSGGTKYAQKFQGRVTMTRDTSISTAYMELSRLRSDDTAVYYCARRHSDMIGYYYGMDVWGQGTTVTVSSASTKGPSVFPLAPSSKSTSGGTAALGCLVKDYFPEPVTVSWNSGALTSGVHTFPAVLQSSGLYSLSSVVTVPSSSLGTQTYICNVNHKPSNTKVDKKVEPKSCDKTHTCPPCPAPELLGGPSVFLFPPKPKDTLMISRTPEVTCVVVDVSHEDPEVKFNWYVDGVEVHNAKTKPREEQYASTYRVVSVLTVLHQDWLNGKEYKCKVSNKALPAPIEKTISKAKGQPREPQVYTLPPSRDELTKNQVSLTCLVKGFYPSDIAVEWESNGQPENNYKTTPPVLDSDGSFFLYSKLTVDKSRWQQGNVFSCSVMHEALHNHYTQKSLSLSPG
light: DIQMTQSPSSVSASVGDRVTITCRASQGISSWLAWYQQKPGKAPKLLIYAASSLQSGVPSRFSGSGSGTDFTLTISSLQPEDFATYYCQQATDFPPTFGGGTKVEIKRTVAAPSVFIFPPSDEQLKSGTASVVCLLNNFYPREAKVQWKVDNALQSGNSQESVTEQDSKDSTYSLSSTLTLSKADYEKHKVYACEVTHQGLSSPVTKSFNRGEC
notes: also called anti-CD277 antibody mAb1; anti-CD277 mAb1
